Drawing on doi:10.1101/2023.11.25.568662, this text covers fold increase of expression-normalized binding over Boskar4 for one molecule.

Test [1] deals with bv2 displayed on E. coli (Intimin fusion). In words: flow cytometry on cells. Background: A flow cytometer gives signals particle by particle.
The target in test [2] is 16 unique Boskar4 variants displayed on E. coli. Put plainly: flow cytometry on cells.

B1: biotinylated recombinant human G-CSFR (BioGCSFR) (receptor)
chain: ECGHISVSAPIVHLGDPITASCIIKQNCSHLDPEPQILWRLGAELQPGGRQQRLSDGTQESIITLPHLNHTQAFLSCCLNWGNSLQILDQVELRAGYPPAIPHNLSCLMNLTTSSLICQWEPGPETHLPTSFTLKSFKSRGNCQTQGDSILDCVPKDGQSHCCIPRKHLLLYQNMGIWVQAENALGTSMSPQLCLDPMDVVKLEPPMLRTMDPSPEAAPPQAGCLQLCWEPWQPGLHINQKCELRHKPQRGEASWALVGPLPLEALQYELCGLLPATAYTLQIRCIRWPLPGHWSDWSPSLELRTTERAPTVRLDTWWRQRQLDPRTVQLFWKPVPLEEDSGRIQGYVVSWRPSGQAGAILPLCNTTELSCTFHLPSEAQEVALVAYNSAGTSRPTPVVFSESRGPALTRLHAMARDPHSLWVGWEPPNPWPQGYVIEWGLGPPSASNSNKTWRMEQNGRATGFLLKENIRPFQLYEIIVTPLYQDTMGPSQHVYAYSQEMAPSHAPELHLKHIGKTWAQLEWVPEPPELGKSPLTHYTIFWTNAQNQSFSAILNASSRGFVLHGLEPASLYHIHLMAASQAGATNSTVLTLMTLTPEGSELH
modifications: biotin (Biotin-NHS, 1:20 molar ratio G-CSFR:Biotin-NHS)
As to B1, the fold increase of expression-normalized binding over Boskar4 in test [1] amounted to 37 fold; in test [2], 3 fold.
